Laboratory results: patent publication US20170266276A1, “Combination Therapy For Treatment of Cancer” (OncoMed Pharmaceuticals, Inc., priority 2014, published 2017)

Tests used:
[1] = tested on: OMP-OV19 ovarian tumor cells; assay: OMP-OV19 ovarian tumor xenograft model, tumor volume; assay type: in vivo, NOD/SCID mice
Experimental: FIGS. 1A and 1B. Inhibition of ovarian tumor growth in vivo by a RSPO-LGR pathway inhibitor in combination with a chemotherapeutic agent. OMP-OV19 ovarian tumor cells were injected subcutaneously into NOD/SCID mice. FIG. 1A. Mice were treated with control antibody (-[…]-), paclitaxel (-▪-), a combination of paclitaxel plus anti-RSPO3 antibody 131R010 (also referred to as OMP-131R10) administered the same day (-▴-), or a combination of paclitaxel plus 131R010, wherein 131R010 was administered 2 days prior to paclitaxel (-▾-). Antibodies were dosed at 25 mg/kg and administered every other week. Paclitaxel was dosed at 20 mg/kg and administered every other week. Tumor volumes were measured on the indicated days post-treatment and shown as the mean±SEM. FIG. 1B. Tumor volumes of individual animals in the two combination treatment groups on Day 61.
OncoMed xenograft models described herein were established at OncoMed Pharmaceuticals from minimally passaged, patient-derived tumor specimens. The tumor specimens were examined by a pathologist and classified as a specific tumor type. […]
Single cell suspensions of xenograft OMP-OV19 ovarian tumor cells (1×10^5 cells) were injected subcutaneously into NOD/SCID mice. […] Tumor volumes were measured on the indicated days post-treatment and are shown as the mean±SEM in FIG. 1A.

xenograft models = assay: Several xenograft models (summary of Examples 1-3); assay type: in vivo
OMP-C8 colon tumor cells = assay: OMP-C8 colorectal tumor xenograft model, tumor volume; assay type: in vivo, NOD/SCID mice; conditions: for tumor growth inhibition, staggered vs same-day dosing: OMP-131R010 25 mg/kg every other week, compared with dosing on the same day
Experimental: FIGS. 3A and 3B. Inhibition of colorectal tumor growth in vivo by a RSPO-LGR pathway inhibitor in combination with chemotherapeutic agents. OMP-C8 colorectal tumor cells were injected subcutaneously into NOD/SCID mice. FIG. 3A. Mice were treated with control antibody (-▪-), nab-paclitaxel (ABRAXANE) (-Δ-), a combination of nab-paclitaxel and anti-RSPO3 antibody 131R010 administered the same day (-[…]-), or a combination of nab-paclitaxel plus anti-RSPO3 antibody 131R010, wherein 131R010 was administered 2 days prior to nab-paclitaxel (-▾-). Antibodies were dosed every other week at 25 mg/kg. Nab-paclitaxel was dosed once a week at 30 mg/kg. Tumor volumes were measured on the indicated days post-treatment. FIG. 3B. Mice were treated with control antibody (-▪-), 5-FU and irinotecan (-◯-), a combination of 5-FU, irinotecan, and anti-RSPO3 antibody 131R010 administered the same day (-▴-), or a combination of 5-FU and irinotecan plus anti-RSPO3 antibody 131R010, wherein 131R010 was administered 2 days prior to 5-FU and irinotecan (-⋄-). Antibodies were dosed every other week at 25 mg/kg. 5-FU and irinotecan were dosed at 50 mg/kg and 5 mg/kg, respectively, once a week. Tumor volumes were measured on the indicated days post-treatment.
(§1) OncoMed xenograft models described herein were established at OncoMed Pharmaceuticals from minimally passaged, patient-derived tumor specimens. The tumor specimens were examined by a pathologist and classified as a specific tumor type. OncoMed relies on these classifications unless further analyses are done on any specific tumor and a reclassification is deemed necessary.
Single cell suspensions of xenograft OMP-C8 colon tumor cells (5×10^4 cells) were injected subcutaneously into NOD/SCID mice. OMP-C8 colon tumor cells comprise an inactivating mutation in the APC gene and express low levels of RSPO3 (data not shown). Tumors were allowed to grow 23 days until they reached an average volume of approximately 100 mm^3. Tumor-bearing mice were randomized into four groups (n=9 animals per group). […] Tumor volumes were measured on the indicated days post-treatment.

[2] = tested on: OMP-LU77 lung tumor cells; assay: OMP-LU77 lung tumor xenograft model, tumor volume; assay type: in vivo, NOD/SCID mice
Experimental: FIG. 2. Inhibition of lung tumor growth in vivo by a RSPO-LGR pathway inhibitor in combination with a chemotherapeutic agent. OMP-LU77 lung tumor cells were injected subcutaneously into NOD/SCID mice. Mice were treated with control antibody (-▪-), paclitaxel (-▴-), a combination of paclitaxel and anti-RSPO3 antibody 131R010 (also referred to as OMP-131R10) administered the same day (-▾-), or a combination of paclitaxel plus anti-RSPO3 antibody 131R010, wherein 131R010 was administered 2 days prior to paclitaxel (-[…]-). Antibodies were dosed every three weeks at 25 mg/kg. Taxol was dosed every three weeks at 20 mg/kg. Tumor volumes were measured on the indicated days post-treatment.
as §1
Single cell suspensions of xenograft OMP-LU77 lung tumor cells (5×10^4 cells) were injected subcutaneously into NOD/SCID mice. Tumors were allowed to grow 34 days until they reached an average volume of approximately 125 mm^3. […] Tumor volumes were measured on the indicated days post-treatment.

B1: OMP-131R010: anti-RSPO3 antibody; heavy chain variable region SEQ ID NO:38, light chain variable region SEQ ID NO:39; plasmids ATCC PTA-120420 and PTA-120421 (antibody, V domains shown)
VH: QVQLVQSGAEVKKPGASVKVSCKASGYTFTDYSIHWVRQAPGQGLEWIGYIYPSNGDSGYNQKFKNRVTMTRDTSTSTAYMELSRLRSEDTAVYYCATYFANNFDYWGQGTTLTVSS
VL: DIQMTQSPSSLSASVGDRVTITCKASQSVDYDGDSYMNWYQQKPGKAPKLLIYAASNLESGVPSRFSGSGSGTDFTLTISPVQAEDFATYYCQQSNEDPLTFGAGTKLELKR
notes: anti-RSPO3 antibody; plasmids ATCC PTA-120420 and PTA-120421
[1]; OMP-131R010 25 mg/kg every other week, given two days prior to paclitaxel 20 mg/kg every other week, compared with dosing on the same day
  tumor growth inhibition, staggered vs same-day dosing: greater tumor growth inhibition than dosing on the same day
[1]; staggered administration: OMP-131R010 25 mg/kg two days prior to paclitaxel 20 mg/kg, every other week
  tumor size over the course of the treatment: decreased tumor size
Xenograft models; OMP-131R010 administered prior to a taxane, compared with co-administration
  inhibition of tumor growth, staggered vs co-administration: better at inhibiting tumor growth
Xenograft models; combination of OMP-131R010 and a taxane
  inhibition of tumor growth by the combination: effective at inhibiting tumor growth
Xenograft models; staggered administration of OMP-131R010 and taxane
  tumor size over the course of the treatment: decreased tumor size
OMP-C8 colon tumor cells; given two days prior to fluorouracil 50 mg/kg and irinotecan 5 mg/kg weekly
  tumor growth inhibition, staggered vs same-day dosing: did not result in greater tumor growth inhibition than dosing on the same day
OMP-C8 colon tumor cells; given two days prior to nab-paclitaxel 30 mg/kg weekly
  tumor growth inhibition, staggered vs same-day dosing: greater tumor growth inhibition than dosing on the same day
OMP-C8 colon tumor cells; OMP-131R010 and nab-paclitaxel administered in a sequential manner, compared with OMP-131R010 plus fluorouracil and irinotecan
  efficacy in inhibiting tumor growth, vs combination with a non-mitotic-inhibitor chemotherapeutic agent: greater efficacy in inhibiting tumor growth
[2]; OMP-131R010 25 mg/kg given two days prior to paclitaxel 20 mg/kg, both once every three weeks, compared with dosing on the same day
  tumor growth inhibition, staggered vs same-day dosing: greater tumor growth inhibition than dosing on the same day
[2]; staggered administration: OMP-131R010 25 mg/kg two days prior to paclitaxel 20 mg/kg, once every three weeks
  tumor size over the course of the treatment: decreased tumor size
